Drawing on publication PMC12607152, this text covers binding for 2 sequences.

The target in data set [1] is T1, CcpA (catabolite control protein A) (Staphylococcus aureus (XN108?)) (UniProt P99175).
T1 sequence: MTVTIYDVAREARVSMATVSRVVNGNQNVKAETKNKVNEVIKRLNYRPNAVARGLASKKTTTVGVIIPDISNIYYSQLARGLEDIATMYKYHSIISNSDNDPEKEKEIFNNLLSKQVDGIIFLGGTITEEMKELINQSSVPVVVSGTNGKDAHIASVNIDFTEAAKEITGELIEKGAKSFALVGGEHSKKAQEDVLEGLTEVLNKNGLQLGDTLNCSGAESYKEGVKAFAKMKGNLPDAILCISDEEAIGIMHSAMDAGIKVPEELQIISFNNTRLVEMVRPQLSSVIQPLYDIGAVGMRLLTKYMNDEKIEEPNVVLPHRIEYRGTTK
Kind of data set: EMSA. To be noted: not given in the material; EMSA as previously described (ref 22). On the technique in general: A gel shift assay detects complexes by their altered migration in electrophoresis.

Data set [2] has as its target T1, CcpA (catabolite control protein A) (Staphylococcus aureus (XN108?)). Kind of data set: competition. The note with it: not given in the material; EMSA as previously described (ref 22).

In the case of “CAGTCCTCAACTCTTTTAATGTTTTCATGTTGTCACCGCCTTTCGTAAACCTAATATAATACGAAATTTTCGTATTGTCAACATTAAATACGTTTTTTTCGTAAAAAACTTTACTATGATATGAAAATTTCGTATAATAAGAAAAAAGGAGGTAAGTAAT (double strand) [PcI probe (160-bp region upstream of cI)]”, in data set [1], the binding entry is given as “binds”.

For “CAGTCCTCAACTCTTTTAATGTTTTCATGTTGTCACCGCCTTTCGTAAACCTAATATAATACGAAATTTTCGTATTGTCAACATTAAATACGTTTTTTTCGTAAAAAACTTTACTATGATATGAAAATTTCGTATAATAAGAAAAAAGGAGGTAAGTAAT (double strand) [PcI unlabeled competitor]”, the binding result in data set [2] is given as “binds”.
